How the values were obtained:
[1] = Insulin release from CLIP fabricated PAA cylinders dissolved in water (sandwich ELISA); assay type: physicochemical
Excerpt: Insulin (Sigma) was incorporated into test parts with identical dimensions described in FIG. 22A using CLIP and a resin containing 87.1 wt % acrylic acid monomer, 2.52 wt % DPO photo initiator, 10.4 wt % acetic acid, 0.17 wt % human insulin. Resin of an identical composition, excluding the […] insulin, was used as a negative control for insulin incorporation and release. Parts were fabricated using continuous printing on the CLIP7 apparatus (Carbon 3D) with a drawspeed of 100 mm/hr and 14.5 mW/cm2 light intensity. CLIP fabricated PAA parts were dissolved in 2 mL of water and the solution was then centrifuged at 20,000×g for 10 minutes to remove any insoluble material and insulin release was quantified using an sandwich ELIS A method (3A6 anti-insulin coating antibody, 8E2-HRP detection antibody from AbCam) combined with and an insulin standard curve. Insulin was readily detected in dissolved CLIP fabricated PAA cylinders made with insulin containing resin (FIG. 25) with an average of 0.5 unit/mL insulin (1 unit/cylinder), which was close to the theoretical insulin loading levels of 1 unit per cylinder based on PAA cylinder dry weight (20-22 mg). No insulin was detected in the supernatant of dissolved vehicle control cylinders (FIG. 25), validating the specificity of the ELISA-based insulin assay. […]

[2] = value used for insulin loading calculation; cited from earlier work
[3] = OVA-647 release from CLIP fabricated PAA cylinders dissolved in water (fluorescence plate reader); assay type: physicochemical; conditions: PAA cylinder from resin with 0.01 wt % OVA-647, dissolved in 2 mL of water, versus vehicle control cylinders
Excerpt: Fluorescently labeled (Alexa Fluor® 647) model vaccine antigen ovalbumin (referred to as OVA-647) was incorporated into a PAA matrix using CLIP and a resin containing […] (Sigma), 2.3 wt % DPO photo initiator (Sigma), […], 0.01 wt % OVA-647 (Invitrogen). Resin of an identical composition, excluding the 0.01 wt % OVA-647, was used as a negative control for OVA-647 incorporation. The shape of the CLIP fabricated test parts was cylindrical with 3 mm diameter×3 mm height, containing a hollowed out center 1.5 mm diameter (FIG. 22A and FIG. 22B). Parts were fabricated using continuous printing on the CLIP7 apparatus (Carbon 3D) with a drawspeed of 100 mm/hr and 8.4 mW/cm2 light intensity. OVA-647 incorporation into CLIP fabricated PAA parts was confirmed using microscopy (FIG. 22C). The OVA-647 and vehicle control PAA cylinders were dissolved in 2 mL of water and the solution was then centrifuged at 20,000×g for 10 minutes to remove any insoluble material and OVA-647 release was measured using a fluorescence plate reader.
Referring to FIG. 23, vehicle PAA cylinders (containing 8.97 wt % water) or OVA-647 resin ([…] in water) were tested. Each bar represents an independent cylinder dissolved in 2 mL of water and the supernatant was measured for OVA-647 fluorescence. Values were normalized to a standard curve of soluble OVA-647. […]

Row | Molecule | insulin release per cylinder ([1]; PAA cylinder dissolved in 2 mL of water) [unit/cylinder] | insulin release, average concentration in dissolved cylinder solution ([1]; PAA cylinder from resin with 0.17 wt % human insulin, dissolved in 2 mL of water) [unit/mL] | max solubility [2] [µg/mL] | OVA-647 release (fluorescence in supernatant) [3]
1 | Insulin: Human insulin (Sigma) incorporated into CLIP fabricated PAA cylinders | 1 | 0.5 | 10000 | –
2 | OVA-647: Fluorescently labeled (Alexa Fluor 647) model vaccine antigen ovalbumin, incorporated into PAA cylinders (protein, UniProt P01012 2-386, looked up, Alexa Fluor 647 label, Fluorescently labeled (Alexa Fluor 647) model vaccine antigen ovalbumin, incorporated into PAA cylinders) Ovalbumin: GSIGAASMEFCFDVFKELKVHHANENIFYCPIAIMSALAMVYLGAKDSTRTQINKVVRFDKLPGFGDSIEAQCGTSVNVHSSLRDILNQITKPNDVYSFSLASRLYAEERYPILPEYLQCVKELYRGGLEPINFQTAADQARELINSWVESQTNGIIRNVLQPSSVDSQTAMVLVNAIVFKGLWEKAFKDEDTQAMPFRVTEQESKPVQMMYQIGLFRVASMASEKMKILELPFASGTMSMLVLLPDEVSGLEQLESIINFEKLTEWTSSNVMEERKIKVYLPRMKMEEKYNLTSVLMAMGITDVFSSSANLSGISSAESLKISQAVHAAHAEINEAGREVVGSAEAGVDAASVSEEFRADHPFLFCIKHIATNAVLFFGRCVSP | – | – | – | readily detected above background florescence levels

Source: patent US10792857B2, “Polymeric microneedles and rapid additive manufacturing of the same” (The University of North Carolina at Chapel Hill, priority 2015, dated 2020)
